Source: patent US20100330094A1 (NOVIMMUNE S A, published 2010)
Where a chain is given by its changes, count along the chain named.

T1: recombinant human IP-10 (hIP-10) (human, UniProt P02778 22-98)
T1 construct: mature; Commercial recombinant chemokine (Peprotech); also called rhIP-10; CXCL10
T1 sequence (looked up): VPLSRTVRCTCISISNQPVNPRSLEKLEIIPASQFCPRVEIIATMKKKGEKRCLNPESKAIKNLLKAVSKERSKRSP

T2: hIP-10 immobilized on glycosaminoglycan (FITC-labeled heparin) (human, UniProt P02778 22-98)
T2 construct: mature; also called hIP-10 on GAG; hIP-10 immobilized on GAG
T2 sequence (looked up): T1 sequence (looked up)

T3: native human IP-10 (hIP-10) (human, UniProt P02778 22-98)
T3 sequence (looked up): T1 sequence (looked up)

T4: NusA-mouse IP-10 fusion protein (mouse, UniProt P17515 22-98)
T4 construct: mature; not shown: NusA fusion partner encoded by expression plasmid pET43 (Novagen); vector-encoded linker with Factor X protease cleavage site
T4 sequence (looked up): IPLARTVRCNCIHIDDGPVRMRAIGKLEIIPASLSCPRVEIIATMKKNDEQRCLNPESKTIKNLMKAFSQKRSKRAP

T5: NusA-hIP-10 fusion protein (human, UniProt P02778 22-98)
T5 construct: mature; not shown: NusA fusion partner encoded by expression plasmid pET43 (Novagen); vector-encoded linker with Factor X protease cleavage site at the C-terminus of NusA; AviTag biotinylation site (Avidity) at the C-terminus of the chemokine
T5 sequence (looked up): T1 sequence (looked up)

T6: NusA-rat IP-10 fusion protein (rat, UniProt P48973 22-98)
T6 construct: mature; not shown: NusA fusion partner encoded by expression plasmid pET43 (Novagen); vector-encoded linker with Factor X protease cleavage site
T6 sequence (looked up): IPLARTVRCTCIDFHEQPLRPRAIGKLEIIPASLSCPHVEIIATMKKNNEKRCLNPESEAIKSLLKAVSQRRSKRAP

T7: NusA-cynomolgus IP-10 fusion protein (cynomolgus, UniProt A0A2K5WKN6 22-98)
T7 construct: mature; not shown: NusA fusion partner encoded by expression plasmid pET43 (Novagen); vector-encoded linker with Factor X protease cleavage site
T7 sequence: T1 sequence (looked up) with V1I, A32P, R38H

B1: NI-0801, IgG1 format (antibody, V domains shown)
VH: QVQLVESGGGVVQPGRSLRLSCAASGFTFSNSGIHWVRQAPGKGLEWVAVISYDGSNKYYADSVKGRFTISRDNSKNTLYLQMNSLRAEDTAVYYCARLRDNAEYTDYWGQGTLVTVSS
VL: NFMLTQPHSVSESPGKTVTISCTGSGGSIASNYVQWYQQRPGSSPTTVIYEDNQRPSGVPDRFSGSIDSSSNSASLTISGLKTEDEADYYCQSYDPLPVWVFGGGTKLTVLG
notes: Claims 7 and 21 swap the heavy and light chain numbers
B2: CC21R3P1_F1, IgG1 format (antibody, V domains shown)
VH: QVQLVESGGGVVQPGRSHTLSCAASGFAFKNSGIHWVRQAPGKGLEWVAVISYDGSNKFYADSVKGRFTISRDNSQNTVYLQMTDLRPDDTAVYYCARDGSESEYLDYWGKGTLVTVSS
VL: NFMLTQPHSVSESPGKTVTISCTGSGGSIDRNYVQWYQQRPGSAPITVIYEDNQRPSGVPDRFSGSIDSSSNSASLTISGLRTDDEADYYCQSYDSINLWVFGGGTKVTVL
B3: CB21R3P6_G7, IgG1 format (antibody, V domains shown)
VH: QVQLVQSGAEVKKPGSSVTVSCKASGGTFSSFSITWLRQAPGQGLEWMGEITPMFGIANYAQKFQGRVTISADESTSTAYMELSGLTSEDTAMYYCARDGRFDVSDLLTDKPKVTINYNGMDVWGQGTLVTVSS
VL: QSVLTQPPSASGTPGQRVTISCSGSSSNIGSNTVNWYQRLPGAAPQLLIYNNDQRPSGIPDRFSGSKSGTSGSLVISGLQSEDEADYYCASWDDSLNGRVFGGGTKLTVL
B4: CC21R3P1_A2, IgG1 format (antibody, V domains shown)
VH: QLVESGGGLIQPGGSLRLSCAASGFSVSDTYMNWVRQAPGKGLEWVSSIYSDDSTYYADSVKGRFTISRDNSKNTLFLQINSLRAEDTAVYYCARDKEYVTSTGGAYYYFYYMDVWGQGTLVTVSS
VL: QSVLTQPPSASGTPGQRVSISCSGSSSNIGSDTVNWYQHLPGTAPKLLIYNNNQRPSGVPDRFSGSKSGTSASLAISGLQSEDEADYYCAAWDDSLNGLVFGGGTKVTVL
B5: CC21R3P4_F4, IgG1 format (antibody, V domains shown)
VH: QVQLVESGGGVAHSGKSLRLSCAASGFTFSNYGMHWVRQAPGKGLEWLAVISYDGSNRYYADSVKGRFTISRDNSNNTLNLQMSSLRAEDTALYYCAKDAGGPLDYWGRGTLVTVSS
VL: SYVLTQPPSVSVAPGQMARITCGGNNIGDKSVQWYQQRPGQAPLLVVYDDSDRPSGIPERFSGSYSRNTATLTISRVEAGDEADYYCQVWDSSSDHPEVVFGGGTKLTVL
B6: CB2R2P4_C3, IgG1 format (antibody, V domains shown)
VH: QVTLRESGPALVKPTQTLTLTCTFSGFSLTTSGMSVIWIRQPPGKALEWLARIDSDDEKHYNTSLKTRLAISKDTSKNQVVLTMTNMDPVDTGTYYCARLRAGSGPYVFDSWGQGTTVTVSS
VL: B3 VL
B7: CF1H1R3P3_G11, IgG1 format (antibody, V domains shown)
VH: B1 VH with Y59F, R98K, A103G, T106L
VL: B2 VL with A44S, I46T, R82K, D84E, S96P, I97L, N98P, L99V, V108L
B8: CF1N1R3P4_C7, IgG1 format (antibody, V domains shown)
VH: B1 VH with Y59F, R98K
VL: B2 VL with A44S, I46T, R82K, D84E, S96P, I97L, N98P, L99V, V108L
B9: CF1H1R3P4_B5, IgG1 format (antibody, V domains shown)
VH: B1 VH with Y59F, R98K, A103G, T106L
VL: B2 VL with A44S, I46T, R82K, D84E, D95V, S96E, I97T, N98P, L99E, V108L
B10: CF1A11R3P3_F3, IgG1 format (antibody, V domains shown)
VH: B1 VH with Y59F, R98K, A103G, T106L
VL: B2 VL
B11: CC21R3P1_E7, IgG1 format (antibody, V domains shown)
VH: QLVESGGGVVQPGRSLRLSCAASGFTFSTYGMHWVRQAPGKGLEWVAVISYDGGTKYYADSVKGRFTISRDNSMKTLYLQMNSLRTEDTAVYYCAKDLGDLPPGLDYWGQGTMVTVSS
VL: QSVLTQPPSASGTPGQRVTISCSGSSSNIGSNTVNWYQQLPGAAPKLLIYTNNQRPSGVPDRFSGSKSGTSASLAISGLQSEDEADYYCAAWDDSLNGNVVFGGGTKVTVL

Each binder was assayed against T1, recombinant human IP-10 (hIP-10) (assay: SPR (Biacore 2000): IgG1 captured on anti-human IgG, IP-10 in solution, 25 C, 1:1 Langmuir fit).
Experimental: (§1) 200RU (response unit) of a goat anti-human polyclonal IgG (ahIgG; Biacore AB, Uppsala, Sweden) were immobilized by EDC/NHS chemistry on a C1 Biacore chip. […] The surface was regenerated after each cycle by injection of 10 mM glycine pH=1.5 at 30 μL/min, for 30s followed by 1 min. of stabilization time in HBS-EP buffer.
(§2) Binding was measured by passing either hIP-10 (Peprotech, Rocky Hill N.J.) or a NusA-hIP-10 fusion protein at the following concentrations: 34.7 nM, 11.6 nM, 3.85 nM, 1.28 nM, 0.428 nM, 0.142 nM and 0 nM. All solutions were diluted in HBS-EP buffer (Biacore AB, Uppsala, Sweden). Injection was performed at 50 μl/min for 3 min. followed by 12 min. of dissociation time and the temperature was set at 25° C. […] Very similar values were obtained using rhIP-10 or the NusA-hIP-10 fusion, but better response signals were obtained with the fusion protein due to its larger size that induces a better response on the Biacore.

Binder	Kd [nM]
B1	0.109
B2	9.2

Each binder was assayed against T2, hIP-10 immobilized on glycosaminoglycan … (assay: capture assay: IgG captured on coated anti-human Fc, FITC-heparin pre-incubated with hIP-10 added, revealed with HRP-coupled anti-FITC Fab).
Experimental: As with many chemokines, hIP-10 is able to oligomerize and bind to glycosaminoglycans (GAG) expressed at surface of cells such as endothelial cells. In order to make sure that the antibodies were able to bind to hIP-10 in this context, they were tested in the following assay. Maxisorb 96 well plates were coated with anti-human Fc (Jackson, West Grove, Pa.) as capturing reagent for the human IgG to be tested. FITC-labeled heparin (Sigma, St. Louis, Mo.) was used as a prototypic GAG and was incubated with hIP-10 before addition to the captured anti-hIP10 antibodies. […] As shown in FIG. 4 some antibodies were able to bind hIP-10 when bound to GAG whereas others were unable to do so probably because their epitope on hIP-10 was no longer accessible within the oligomeric structure.

Binder	binding result
B3	no binding
B4	no binding

The binders below were run against T1, recombinant human IP-10 (hIP-10) (assay: cell-based or functional assay).

Binder	Calcium flux IC50 (nM); 10 nM rhIP-10 [nM]	Chemotaxis IC50 (nM); 1 nM rhIP-10 [nM]	Chemotaxis IC50 (nM); 0.2 nM rhIP-10 [nM]
B5	> 200	157	
B6	> 200	33	
B3	6.2	8.8	
B1	6.3		0.24
B7	7.9		0.2
B8	4.1		0.19
B9	4.7		0.42
B10	5.9		0.69
B11	> 200	56	
B2	9.8	3	
B4	9.8	3.2	

These binders were tested against T3, native human IP-10 (hIP-10) (assay: cell-based or functional assay).

Binder	Chemotaxis IC50 (nM); native hIP-10 at 0.6 nM [nM]
B3	7.8
B1	0.58
B7	1.9
B8	0.64
B9	1.2
B10	1.7
B2	11
B4	6.2

Each binder was assayed against T1, recombinant human IP-10 (hIP-10) (assay: SPR (Biacore 2000)).
Experimental: as §1, §2

Binder	fold improvement of affinity over CC21R3P1_F1 [fold]
B1	90

Each binder was assayed against T4, NusA-mouse IP-10 fusion protein (assay: capture ELISA: NI-0801 coated, concentration range of NusA fusion protein, revealed with anti-NusA antibody).
Text: (§3) Briefly, IP-10 cloned from cDNA isolated from mouse, rat, rabbit and cynomolgus as well as a panel of human chemokines was expressed and purified as described in Example 1.

Binder	binding result
B1	no binding (tested: about 2e-7 M)

Each binder was assayed against T5, NusA-hIP-10 fusion protein in the same assay as above.
Text: as §3

Binder	EC50 (read off the curve) [nM]
B1	~3

Each binder was assayed against T6, NusA-rat IP-10 fusion protein in the same assay as above.
Text: as §3

Binder	binding result
B1	no binding (tested: about 2e-7 M)

What follows are binders tested against T7, NusA-cynomolgus IP-10 fusion protein in the same assay as above.
Text: as §3

Binder	EC50 (read off the curve) [nM]
B1	~1
